Results reported in US20110189205A1.

What was measured:
[1] = target: CGRP receptor on human MDA-MB-231BR breast cancer cells (human) (UniProt Q16602); assay: cell-based or functional assay
[2] = target: CGRP receptor on rat CNS1 glioma cells (rat) (UniProt Q63118); assay: cell-based or functional assay
Chain of CGRP receptor on rat CNS1 glioma cells (rat) (Q63118 24-464, chain 1 of 2): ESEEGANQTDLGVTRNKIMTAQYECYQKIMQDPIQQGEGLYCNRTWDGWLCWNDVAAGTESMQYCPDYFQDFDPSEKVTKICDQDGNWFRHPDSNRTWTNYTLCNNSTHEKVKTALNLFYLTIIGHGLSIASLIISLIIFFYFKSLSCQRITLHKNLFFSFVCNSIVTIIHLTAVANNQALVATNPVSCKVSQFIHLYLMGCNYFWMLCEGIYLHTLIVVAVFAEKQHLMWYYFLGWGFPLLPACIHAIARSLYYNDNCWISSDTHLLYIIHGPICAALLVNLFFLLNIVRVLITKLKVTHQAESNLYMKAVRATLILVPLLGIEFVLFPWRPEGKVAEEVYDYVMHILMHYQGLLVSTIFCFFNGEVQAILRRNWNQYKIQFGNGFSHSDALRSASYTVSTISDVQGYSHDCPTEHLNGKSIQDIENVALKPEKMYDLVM
Chain of CGRP receptor on rat CNS1 glioma cells (rat) (Q9JJ74 27-148, chain 2 of 2, further chain): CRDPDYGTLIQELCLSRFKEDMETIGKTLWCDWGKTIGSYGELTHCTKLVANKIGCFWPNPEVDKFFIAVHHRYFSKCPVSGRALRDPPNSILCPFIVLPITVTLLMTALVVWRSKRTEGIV

Chain of CGRP receptor on human MDA-MB-231BR breast cancer cells (human) (Q16602 23-461, chain 1 of 2): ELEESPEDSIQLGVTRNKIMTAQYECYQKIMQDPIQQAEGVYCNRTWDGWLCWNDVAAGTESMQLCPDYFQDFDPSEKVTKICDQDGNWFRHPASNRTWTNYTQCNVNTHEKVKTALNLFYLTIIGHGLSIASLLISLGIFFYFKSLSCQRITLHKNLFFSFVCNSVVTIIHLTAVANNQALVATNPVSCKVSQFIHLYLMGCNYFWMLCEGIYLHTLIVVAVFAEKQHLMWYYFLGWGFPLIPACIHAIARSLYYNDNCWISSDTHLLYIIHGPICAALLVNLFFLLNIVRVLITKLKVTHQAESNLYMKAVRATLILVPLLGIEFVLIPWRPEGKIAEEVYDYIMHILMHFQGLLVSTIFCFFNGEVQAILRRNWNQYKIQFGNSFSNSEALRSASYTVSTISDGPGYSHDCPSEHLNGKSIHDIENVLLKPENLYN
Chain of CGRP receptor on human MDA-MB-231BR breast cancer cells (human) (O60894 27-148, chain 2 of 2, further chain): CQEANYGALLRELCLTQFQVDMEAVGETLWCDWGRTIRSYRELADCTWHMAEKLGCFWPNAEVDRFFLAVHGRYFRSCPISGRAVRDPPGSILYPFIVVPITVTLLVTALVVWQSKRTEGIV

Substance: calcitonin gene-related peptide (CGRP), unlabeled (from UniProt P01256 83-119)
- MDA-MB-231BR cell growth over control, normoxic conditions, 4 days in culture [1]: 6 fold
- CNS1 cell growth over control, normoxic conditions, 4 days in culture [2]: 4 fold
- CNS1 cell growth over control, normoxic conditions, 5 days in culture [2]: 11 fold
- CNS1 glioma growth over control, hypoxic conditions, 4 days in culture [2]: 72 fold
- CNS1 glioma growth over control, hypoxic conditions, 5 days in culture [2]: 10 fold
